Assay results from publication PMC12072002, “Site-Directed Mutagenesis Increased the Catalytic Activity and Stability of Oenococcus oeni β-Glucosidase: Characterization of Enzymatic Properties and Exploration of Mechanisms” (International Journal of Molecular Sciences, 2025).
Positions count from the first letter of the chain named. In names and notes the source's numbering stands. Marks after values point to notes of the source that are not given here.

B1: mutant III (Oenococcus oeni PSU-1; F133K) (protein)
chain: MNKLFLPKNFLWGGAVAANQLEGGWDQDNKGLSVADIMTAGANGKAREITDGIVKGKYYPNHEAIDFYHRYKEDIKLFAEMGFKCFRTSIAWTRIFPNGDEEQPNEAGLKFYDQLFDECHKYGIEPVITLSHKEMPYHLVKAYGGWRNRKLIDFFVRFAKTVFKRYKDKVSYWMTFNEIDNQTDYTNRFLMATNSGLILKNDQSDAESLMYQAAHYELVASALAVKLGHSINPNFQIGCMINMTPVYPASSKPADIFQAEKAMQRRYWFSDIHALGKYPENMEVFLKQNNFRPDITSEDRIVLKEGTVDYIGLSYYNSMTVQSKESNPGFHFIGPELTVDNPNVEKSDWGWPIDPLGLRYSLNWLADHYHKPLFIVENGLGAYDKVENSQQIHDPYRIAYLKAHIQAMIDAVQEDGVKVIGYTPWGCIDLVSAGTGQMSKRYGFIYVDKDDQGKGSLKRLKKDSFFWYQQVIQSNGSQLD
notes: purified recombinant, pMG36e plasmid, expressed in Lactococcus lactis MG1363
B2: wild-type enzyme (Oenococcus oeni PSU-1) (protein)
chain: B1 chain with K133F
notes: purified recombinant BGL0224 (MT330371.1), plasmid pMG36e-0224, expressed in Lactococcus lactis MG1363
B3: mutant IV (Oenococcus oeni PSU-1; N181R) (protein)
chain: B1 chain with K133F, N181R
notes: as for B1

The proteins below were run on O=[N+]([O-])c1ccc(O[C@@H]2O[C@H](CO)[C@H](O)[C@H](O)[C@H]2O)cc1 (assay: p-Nitrophenol release read at 420 nm after Na2CO3 stop, 0.1-25 mM substrate in 20 mM sodium phosphate buffer at each enzyme's optimum (wild type pH 5.0, 50 °C; mutant III pH 3.5, 50 °C; mutant IV pH 4.0, 45 °C), Hill function fit in Origin.).
Assay type: biochemical
Protocol: (§1) 3.9. Enzymatic Reaction Kinetics and Substrate Specificity
(§2) The determination of enzymatic reaction kinetics was conducted according to Zhang et al., with slight modifications. Different concentrations (0.1 mM, 0.2 mM, 0.5 mM, 1.0 mM, 2.0 mM, 5.0 mM, 8.0 mM, 10 mM, 12 mM, 15 mM, 20 mM and 25 mM) of p-NPG substrate solutions were prepared with 20 mM sodium phosphate buffer. Then, 100 μg of enzyme lyophilized powder were added to 500 μL of p-NPG solutions at different concentrations. Next, this was reacted for 0 min, 5 min, 10 min, 15 min, 20 min, 25 min and 30 min under optimal reaction conditions, and at the end of each set of reactions, 500 μL 1 M of Na2CO3 solution were added to terminate the reaction. The absorbance value of each reaction system was measured at 420 nm and the amount of p-NP corresponding to different reaction times at specific substrate concentrations was calculated from the standard curve. The kinetic constants (Vmax and Km) of each reaction system were determined by fitting using the Hill function in the class of Growth/Inverse Curve for nonlinear fitting in the Origin Pro 8.0 software.
(§3) All experiments were set up in three parallels. The activities of the wild-type enzyme and five mutants were analyzed by ANOVA at the significance level of p < 0.05 using the SPSS 26.0 software, and multiple comparisons of the means were performed using Duncan’s method. The kinetic parameters of the enzymatic reactions for the wild-type enzyme and mutants catalyzing four substrates were subjected to independent sample t-tests at a significance level of p < 0.05, and the data were expressed as mean ± standard deviation. The experimental results were plotted using the Origin 2021 software.

Which results are given for B1?
Km: 0.52 ± 0.17 ^a mM; Vmax: 349 ± 4.83 µM/min/mg; kcat: 321 ± 4.44 s⁻¹; kcat/Km: 617000 M⁻¹ s⁻¹

With B2 as the protein, how does the Km read?
Its Km is 0.81 ± 0.16 ^b mM.

What about the Vmax of the same protein?
Its Vmax is 231 ± 5.71 µM/min/mg.

And the kcat?
The kcat was 212 ± 5.25 s⁻¹.

What about the kcat/Km of the same protein?
The kcat/Km was 262000 M⁻¹ s⁻¹.

B3 was tested. Which Km did it give?
The Km was 0.87 ± 0.24 ^c mM.

What about the Vmax of the same protein?
The Vmax was 257 ± 5.47 µM/min/mg.

And the kcat?
The kcat was 237 ± 5.03 s⁻¹.

And the kcat/Km?
The kcat/Km was 272000 M⁻¹ s⁻¹.

Each protein was assayed on O=[N+]([O-])c1ccc(O[C@H]2O[C@H](CO)[C@@H](O)[C@H](O)[C@H]2O)cc1 in the same assay as above.
Assay type: biochemical
Protocol: as §1, §2, §3

What does the source list for B1?
Km: 1.19 ± 0.23 ^b mM; Vmax: 25.8 ± 2.06 µM/min/mg; kcat: 23.7 ± 1.89 s⁻¹; kcat/Km: 19900 M⁻¹ s⁻¹

With B2 as the protein, how does the Km read?
The Km was 1.07 ± 0.20 ^a mM.

And the Vmax?
Its Vmax is 29.6 ± 1.83 µM/min/mg.

What about the kcat of the same protein?
Its kcat is 27.2 ± 1.68 s⁻¹.

And the kcat/Km?
Its kcat/Km is 25400 M⁻¹ s⁻¹.

How did the Km turn out when B3 was run?
Its Km is 1.27 ± 0.19 ^c mM.

And the Vmax?
The Vmax was 19.9 ± 1.98 µM/min/mg.

And the kcat?
The kcat was 18.4 ± 1.82 s⁻¹.

And the kcat/Km?
The kcat/Km was 14400 M⁻¹ s⁻¹.

Each protein was assayed on O=[N+]([O-])c1ccc(O[C@@H]2O[C@H](CO)[C@@H](O)[C@H](O)[C@H]2O)cc1 in the same assay as above.
Assay type: biochemical
Protocol: as §1, §2, §3

With B1 as the protein, how does the Km read?
The Km was 0.27 ± 0.05 ^b mM.

And the Vmax?
The Vmax was 533 ± 6.51 µM/min/mg.

And the kcat?
Its kcat is 490 ± 5.98 s⁻¹.

What about the kcat/Km of the same protein?
The kcat/Km was 1.81e+06 M⁻¹ s⁻¹.

Which results are given for B2?
Km: 0.33 ± 0.03 ^c mM; Vmax: 363 ± 4.13 µM/min/mg; kcat: 334 ± 3.8 s⁻¹; kcat/Km: 1.01e+06 M⁻¹ s⁻¹

What does the source list for B3?
Km: 0.22 ± 0.03^a mM; Vmax: 841.6 ± 3.82 µM/min/mg; kcat: 773.6 ± 3.52 s⁻¹; kcat/Km: 3.52e+06 M⁻¹ s⁻¹

What follows are proteins tested on O=[N+]([O-])c1ccc(O[C@@H]2OC[C@@H](O)[C@H](O)[C@H]2O)cc1 in the same assay as above.
Assay type: biochemical
Protocol: as §1, §2, §3

Which results are given for B1?
Km: 1.24 ± 0.13 ^b mM; Vmax: 337 ± 4.61 µM/min/mg; kcat: 310 ± 4.24 s⁻¹; kcat/Km: 250000 M⁻¹ s⁻¹

Which Km does the source give for B2 here?
Its Km is 1.31 ± 0.22 ^c mM.

And the Vmax?
Its Vmax is 308 ± 3.64 µM/min/mg.

And the kcat?
The kcat was 283 ± 3.34 s⁻¹.

What about the kcat/Km of the same protein?
Its kcat/Km is 216000 M⁻¹ s⁻¹.

What does the source list for B3?
Km: 1.17 ± 0.16 ^a mM; Vmax: 359 ± 3.88 µM/min/mg; kcat: 330 ± 3.57 s⁻¹; kcat/Km: 282000 M⁻¹ s⁻¹
